What was measured:
[1] = target: S1-STMND1 (human STMND1 lacking the first seven amino acids, amino acids 8-276), His6-tagged (human) (UniProt H3BQB6); assay: BLI
[2] = target: STMND1-SLD (stathmin-like domain of human STMND1, amino acids 118-276), His6-tagged (human) (UniProt H3BQB6); assay: BLI

Work on “Bovine brain tubulin (αβ-tubulin heterodimer) (from UniProt Q6B856 1-445) (complex)” yielded a Kd [1] of 400 nM and a Kd [2] of 600 nM.
